Results taken from patent US20180023146A1 (CLEVELAND CLINIC FOUNDATION, published 2018).

Target: T1, 3βHSD1 (367N)-HA (human, UniProt P14060 2-373)
T1 construct: Expressed from pCMX-HSD3B1-HA in 293T cells and immunoprecipitated with anti-HA antibody; also called HSD3B1(N)-HA; not shown: HA tag fused to HSD3B1
T1 sequence (looked up): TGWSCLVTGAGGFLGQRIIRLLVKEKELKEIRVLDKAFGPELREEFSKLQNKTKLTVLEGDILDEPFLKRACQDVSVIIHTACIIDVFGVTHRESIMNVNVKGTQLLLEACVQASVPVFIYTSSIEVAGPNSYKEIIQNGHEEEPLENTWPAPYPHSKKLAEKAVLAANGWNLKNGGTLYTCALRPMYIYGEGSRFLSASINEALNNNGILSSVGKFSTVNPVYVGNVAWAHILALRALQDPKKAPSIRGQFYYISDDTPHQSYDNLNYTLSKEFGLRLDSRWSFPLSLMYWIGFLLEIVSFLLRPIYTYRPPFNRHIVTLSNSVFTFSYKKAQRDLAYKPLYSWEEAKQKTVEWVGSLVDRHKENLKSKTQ
Assay: SILAC with high-resolution mass spectrometry; 367N-HA (heavy) and 367T-HA (light) immunoprecipitations mixed 1:1

B1: AMFR (autocrine mobility factor receptor) (enzyme, UniProt Q9UKV5 1-643, looked up)
chain: MPLLFLERFPWPSLRTYTGLSGLALLGTIISAYRALSQPEAGPGEPDQLTASLQPEPPAPARPSAGGPRARDVAQYLLSDSLFVWVLVNTACCVLMLVAKLIQCIVFGPLRVSERQHLKDKFWNFIFYKFIFIFGVLNVQTVEEVVMWCLWFAGLVFLHLMVQLCKDRFEYLSFSPTTPMSSHGRVLSLLVAMLLSCCGLAAVCSITGYTHGMHTLAFMAAESLLVTVRTAHVILRYVIHLWDLNHEGTWEGKGTYVYYTDFVMELTLLSLDLMHHIHMLLFGNIWLSMASLVIFMQLRYLFHEVQRRIRRHKNYLRVVGNMEARFAVATPEELAVNNDDCAICWDSMQAARKLPCGHLFHNSCLRSWLEQDTSCPTCRMSLNIADNNRVREEHQGENLDENLVPVAAAEGRPRLNQHNHFFHFDGSRIASWLPSFSVEVMHTTNILGITQASNSQLNAMAHQIQEMFPQVPYHLVLQDLQLTRSVEITTDNILEGRIQVPFPTQRSDSIRPALNSPVERPSSDQEEGETSAQTERVPLDLSPRLEETLDFGEVEVEPSEVEDFEARGSRFSKSADERQRMLVQRKDELLQQARKRFLNKSSEDDAASESFLPSEGASSDPVTLRRRMLAAAAERRLQKQQTS
notes: It appears to be the protein of the human 293T cells, co-immunoprecipitated with HA-tagged 3βHSD1; also called gp78; ubiquitin E3-ligase AMFR
  normalized protein ratio (SILAC; 3βHSD1 (367N)-HA against 3βHSD1 (367T)-HA immunoprecipitates): 1.67
